Measurements published in patent US20190023748A1 (NAVIGEN, published 2019).
Bridge positions count the residues as written; N and C are the ends. Square brackets hold non-standard residues; d marks the D form. Primed or numbered codes have the meaning given here. PEG4′ = not defined here

Columns and labels:
Assay in all cases: cell-based or functional assay
[1] = target: HIV-1 gp41 of isolate PBL288 (clade C) (HIV-1 isolate PBL288)
[2] = target: HIV-1 gp41 of isolate BZ167 (clade B) (HIV-1 isolate BZ167)
[3] = target: HIV-1 gp41 of isolate KNH1207 (clade A) (HIV-1 isolate KNH1207)
[4] = target: HIV-1 gp41 of isolate J32228M4 (clade D) (HIV-1 isolate J32228M4)
[5] = target: HIV-1 gp41 of isolate 55815 (AG) (HIV-1 isolate 55815)
[6] = target: HIV-1 gp41 of isolate A07412M1 (clade D) (HIV-1 isolate A07412M1)
[7] = target: HIV-1 gp41 of isolate CAM0008 (AG) (HIV-1 isolate CAM0008)
[8] = target: HIV-1 gp41 of isolate US1/GS0004 (clade B) (HIV-1 isolate US1/GS0004)
[9] = target: HIV-1 gp41 of isolate CAM0014 (AG) (HIV-1 isolate CAM0014)
[10] = target: HIV-1 gp41 of isolate NP1695 (AE) (HIV-1 isolate NP1695)
[11] = target: HIV-1 gp41 of isolate US4/GS007 (clade B) (HIV-1 isolate US4/GS007)
[12] = target: HIV-1 gp41 of isolate 301965 (clade D) (HIV-1 isolate 301965)
[13] = target: HIV-1 gp41 of isolate NP1525 (AE) (HIV-1 isolate NP1525)
[14] = target: HIV-1 gp41 of isolate KNH1088 (clade A) (HIV-1 isolate KNH1088)
[15] = target: HIV-1 gp41 of isolate SE364/GS015 (clade C) (HIV-1 isolate SE364/GS015)
[16] = target: HIV-1 gp41 of isolate E08364M4 (clade D) (HIV-1 isolate E08364M4)
[17] = target: HIV-1 gp41 of isolate 20635-4 (clade C) (HIV-1 isolate 20635-4)
[18] = target: HIV-1 gp41 of isolate KER2008 (clade A) (HIV-1 isolate KER2008)
[19] = target: HIV-1 gp41 of isolate 93RW024 (clade A) (HIV-1 isolate 93RW024)
[20] = target: HIV-1 gp41 of isolate 57128 (clade D) (HIV-1 isolate 57128)
[21] = target: HIV-1 gp41 of isolate CAM0015 (AG) (HIV-1 isolate CAM0015)
[22] = target: HIV-1 gp41 of isolate D26830M4 (clade D) (HIV-1 isolate D26830M4)
[23] = target: HIV-1 gp41 of isolate TZA246 (clade C) (HIV-1 isolate TZA246)
[24] = target: HIV-1 gp41 of isolate CAM0005 (AG) (HIV-1 isolate CAM0005)
[25] = target: HIV-1 gp41 of isolate NI1149 (AE) (HIV-1 isolate NI1149)
[26] = target: HIV-1 gp41 of isolate SM145/GS016 (clade C) (HIV-1 isolate SM145/GS016)
[27] = target: HIV-1 gp41 of isolate KNH1209 (clade A) (HIV-1 isolate KNH1209)
[28] = target: HIV-1 gp41 of isolate CAM1475MV (AG) (HIV-1 isolate CAM1475MV)
[29] = target: HIV-1 gp41 of isolate A08483M1 (clade D) (HIV-1 isolate A08483M1)
[30] = target: HIV-1 gp41 of isolate BX08 (clade B) (HIV-1 isolate BX08)

B1: CPT31 (cholesterol-PIE12-2-trimer with PEG32 fourth-arm spacer) (peptide)
peptide: Ac-[dH][dP][dC][dD][dY][dP][dE][dW][dQ][dW][dL][dC][dE][dL]G[PEG4′]K-NH2
modifications: disulfide 3-12 (inferred); not fully specified (some residues); numbers in words are those of the source; also: PIE12-2 trimer on scaffold, fourth arm PEG28 + PEG4 with cholesteryl carbamate
B1 was tested, and the “1 nM inhibition” value [1] was 3%, the “10 nM inhibition” value [1] was 12% and the “1 nM inhibition” value [2] was 99.4%. For the same binder, the “10 nM inhibition” value [2] was 99.8%, the “1 nM inhibition” value [3] was 92.1% and the “10 nM inhibition” value [3] was 98.2%. For the same binder, the “1 nM inhibition” value [4] was 96.1%, the “10 nM inhibition” value [4] was 98% and the “1 nM inhibition” value [5] was 98.8%. For the same binder, the “10 nM inhibition” value [5] was 99.5%, the “1 nM inhibition” value [6] was 92% and the “10 nM inhibition” value [6] was 96.7%. For the same binder, the “1 nM inhibition” value [7] was 96.8%, the “10 nM inhibition” value [7] was 99.7% and the “1 nM inhibition” value [8] was 95.3%. For the same binder, the “10 nM inhibition” value [8] was 97.7%, the “1 nM inhibition” value [9] was 98.8% and the “10 nM inhibition” value [9] was 99.5%. For the same binder, the “1 nM inhibition” value [10] was 95.7%, the “10 nM inhibition” value [10] was 97% and the “1 nM inhibition” value [11] was 91.1%. The “10 nM inhibition” value [11] was 98.7%, the “1 nM inhibition” value [12] was 96.1% and the “10 nM inhibition” value [12] was 97.7%. The “1 nM inhibition” value [13] was 98.8%, the “10 nM inhibition” value [13] was 99.3% and the “1 nM inhibition” value [14] was 98.5%. For the same binder, the “10 nM inhibition” value [14] was 99.6%, the “1 nM inhibition” value [15] was 91.6% and the “10 nM inhibition” value [15] was 97.7%. For the same binder, the “1 nM inhibition” value [16] was 50.7%, the “10 nM inhibition” value [16] was 58.6% and the “1 nM inhibition” value [17] was 99%. For the same binder, the “10 nM inhibition” value [17] was 99.6%, the “1 nM inhibition” value [18] was 84.1% and the “10 nM inhibition” value [18] was 85.3%. For the same binder, the “1 nM inhibition” value [19] was 97%, the “10 nM inhibition” value [19] was 99.3% and the “1 nM inhibition” value [20] was 35.2%. The “10 nM inhibition” value [20] was 37.3%, the “1 nM inhibition” value [21] was 96% and the “10 nM inhibition” value [21] was 97%. For the same binder, the “1 nM inhibition” value [22] was 95.3%, the “10 nM inhibition” value [22] was 98.5% and the “1 nM inhibition” value [23] was 98.3%. The “10 nM inhibition” value [23] was 98.4%, the “1 nM inhibition” value [24] was 98.4% and the “10 nM inhibition” value [24] was 99.8%. The “1 nM inhibition” value [25] was 92.9%, the “10 nM inhibition” value [25] was 97.4% and the “1 nM inhibition” value [26] was 30.6%. For the same binder, the “10 nM inhibition” value [26] was 75.7%, the “1 nM inhibition” value [27] was 94.3% and the “10 nM inhibition” value [27] was 95.2%. The “1 nM inhibition” value [28] was 98.3%, the “10 nM inhibition” value [28] was 98.8% and the “1 nM inhibition” value [29] was 69.2%. For the same binder, the “10 nM inhibition” value [29] was 72.3%, the “1 nM inhibition” value [30] was 94.2% and the “10 nM inhibition” value [30] was 99.5%.
